The target of test [1] is T1, human SIRPα, endogenous, on THP-1 cells (human, UniProt P78324 31-504).
T1 construct: whole, on cells; also called SIRP-alpha
The test is described as follows: flow cytometry competition on THP-1 cells against CD47 tetramers. On the technique in general: In flow cytometry, cells or beads pass a laser one at a time.

In test [2] the target is T1, human SIRPα, endogenous, on THP-1 cells. The test is described as follows: flow cytometry competition on THP-1 cells against 100 nM fluorescent CD47/streptavidin tetramers.

B1: KWAR23 scFv LH (N-terminal light chain), monomer expressed in E. coli (scFv)
scFv: QIVLTQSPAIMSASPGEKVTLTCSASSSVSSSYLYWYQQKPGSSPKLWIYSTSNLASGVPARFSGSGSGTSYSLTISSMEAEDAASYFCHQWSSYPRTFGAGTKLELKGTTAASGSSGGSSSGAEVQLQQSGAELVKPGASVKLSCTASGFNIKDYYIHWVQQRTEQGLEWIGRIDPEDGETKYAPKFQDKATITADTSSNTAYLHLSSLTSEDTAVYYCARWGAYWGQGTLVTVS
notes: also called LH scFv; LH monomer
With B1, the IC50 in test [1] is approximately 35 nM.

B2: KWAR23, monoclonal CD47-blocking anti-human SIRPα antibody (purified from hybridoma supernatant) (antibody, V domains shown)
VH: EVQLQQSGAELVKPGASVKLSCTASGFNIKDYYIHWVQQRTEQGLEWIGRIDPEDGETKYAPKFQDKATITADTSSNTAYLHLSSLTSEDTAVYYCARWGAYWGQGTLVTVSS
VL: QIVLTQSPAIMSASPGEKVTLTCSASSSVSSSYLYWYQQKPGSSPKLWIYSTSNLASGVPARFSGSGSGTSYSLTISSMEAEDAASYFCHQWSSYPRTFGAGTKLELK
notes: Mouse hybridoma antibody purified by protein G chromatography; also called KWAR23 antibody; intact KWAR23
B2: the IC50 in test [2] was approximately 0.27 nM.

B3: KWAR23 scFv HL (N-terminal heavy chain), monomer expressed in E. coli (scFv)
scFv: EVQLQQSGAELVKPGASVKLSCTASGFNIKDYYIHWVQQRTEQGLEWIGRIDPEDGETKYAPKFQDKATITADTSSNTAYLHLSSLTSEDTAVYYCARWGAYWGQGTLVTVSGGGGSGGGGSGGGGSQIVLTQSPAIMSASPGEKVTLTCSASSSVSSSYLYWYQQKPGSSPKLWIYSTSNLASGVPARFSGSGSGTSYSLTISSMEAEDAASYFCHQWSSYPRTFGAGTKLELK
notes: also called HL scFv; HL monomer
B3 returned a half-maximal inhibitory concentration (IC50) in test [1] of approximately 35 nM.

A word on the IC50: it is the point on the concentration scale where inhibition reaches its midpoint. A lower IC50 goes with greater potency.

For the origin of these results see US20180319883A1 (Stanford University, published 2018).
